Experiment [1] has as its target T1, Recombinant Human DLL4 (R&D Systems Cat#1506-D4/CF) (human, UniProt Q9NR61 27-524).
T1 construct: Bought recombinant protein; also called rHuman DLL4; delta-like protein 4
The experiment can be described thus: Multispot ECL (MSD), antigen spotted on plate, Fab 7.8 nM; blank spot 316.

For experiment [2], the target named is T2, rHuman Notch-1/Fc Chimera, CF (R&D Systems Cat#3647-TK) (human, UniProt P46531 19-526).
T2 construct: Bought recombinant protein; Fc part of the bought chimera not given
Described as above.

Experiment [3] addresses T3, rHuman Erythropoietin R/Fc Chimera, CF (R&D Systems Cat#963-ER) (human, UniProt P19235 25-250).
T3 construct: Bought recombinant protein; also called EPO R/Fc; Epo R; Fc part of the bought chimera not given
T3 sequence (looked up): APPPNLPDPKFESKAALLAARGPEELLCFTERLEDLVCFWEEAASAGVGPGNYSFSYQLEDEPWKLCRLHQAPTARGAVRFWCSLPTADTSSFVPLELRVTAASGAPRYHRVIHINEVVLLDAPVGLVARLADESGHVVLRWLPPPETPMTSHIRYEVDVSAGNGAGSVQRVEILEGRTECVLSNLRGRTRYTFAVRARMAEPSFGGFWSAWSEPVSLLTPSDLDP
The description is as above.

The target in experiment [4] is T4, rHuman IGF-1 sR, CF (R&D Systems Cat#391-GR) (human, UniProt P08069 31-932).
T4 construct: Bought recombinant soluble receptor; also called insulin-like growth factor-1 soluble receptor
Described as above.

Experiment [5] concerns the target T5, Recombinant Human DLL4 (R&D Systems Cat#1506-D4/CF) (human, UniProt Q9NR61 27-524).
T5 construct: Bought recombinant protein; also called rHuman DLL4; delta-like protein 4
In words: MSD Multispot ECL, antigen spotted on plate, Fab at 240 nM; blank spot 316.

Experiment [6] deals with T6, rHuman CD44/Fc Chimera, CF (R&D Systems Cat#3660-CD) (human, UniProt P16070 21-220).
T6 construct: Bought Fc chimera; Fc part of the bought chimera not given
The experiment is described as above.

Experiment [7] deals with T7, rHuman Notch-1/Fc Chimera, CF (R&D Systems Cat#3647-TK) (human, UniProt P46531 19-526).
T7 construct: Bought Fc chimera; Fc part of the bought chimera not given
The experiment is described as above.

For experiment [8], the target named is T8, rHuman P-Cadherin/Fc Chimera, CF (R&D Systems Cat#861-PC) (human, UniProt P22223 108-654).
T8 construct: Bought Fc chimera; Fc part of the bought chimera not given
Described as above.

In experiment [9] the target is T9, rHuman Erythropoietin R/Fc Chimera, CF (R&D Systems Cat#963-ER) (human, UniProt P19235 25-250).
T9 construct: Bought Fc chimera; also called EPO R/Fc; Epo R; Fc part of the bought chimera not given
T9 sequence (looked up): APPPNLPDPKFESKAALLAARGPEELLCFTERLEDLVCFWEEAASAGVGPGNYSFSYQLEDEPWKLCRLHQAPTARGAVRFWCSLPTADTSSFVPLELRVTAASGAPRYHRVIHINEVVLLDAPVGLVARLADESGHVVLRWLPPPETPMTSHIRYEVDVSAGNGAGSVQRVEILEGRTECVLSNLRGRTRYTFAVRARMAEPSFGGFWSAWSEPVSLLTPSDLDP
Described as above.

The target of experiment [10] is T5, Recombinant Human DLL4 (R&D Systems …). The experiment can be described thus: MSD Multispot ECL, antigen spotted on plate, Fab at 120 nM; blank spot 363.
Experiment [11] has as its target T9, rHuman Erythropoietin R/Fc Chimera, CF …. The description is as above.
Experiment [12] concerns the target T10, rHuman IGF-1 sR, (IGF-1 sR), CF (R&D Systems Cat#391-GR) (human, UniProt P08069 31-932).
T10 construct: Bought soluble receptor; also called insulin-like growth factor-1 soluble receptor
In words: MSD Multispot ECL, antigen spotted on plate, Fab 130 nM; blank spot 1153.

For experiment [13], the target named is T11, rHuman CD44/Fc Chimera, CF (R&D Systems Cat#3660-CD) (human, UniProt P16070 21-220).
T11 construct: Bought reagent; Fc part of the bought chimera not given
The experiment is described as above.

In experiment [14] the target is T12, rHuman ErbB2/Fc Chimera, CF (R&D Systems Cat#1129-ER) (human, UniProt P04626 23-652).
T12 construct: Bought reagent; also called human epidermal growth factor 2 receptor; Fc part of the bought chimera not given
The experiment is described as above.

Experiment [15] addresses T13, rHuman Erythropoietin R/Fc Chimera, CF (R&D Systems Cat#963-ER) (human, UniProt P19235 25-250).
T13 construct: Bought reagent; also called EPO R/Fc; EPO R; Fc part of the bought chimera not given
T13 sequence (looked up): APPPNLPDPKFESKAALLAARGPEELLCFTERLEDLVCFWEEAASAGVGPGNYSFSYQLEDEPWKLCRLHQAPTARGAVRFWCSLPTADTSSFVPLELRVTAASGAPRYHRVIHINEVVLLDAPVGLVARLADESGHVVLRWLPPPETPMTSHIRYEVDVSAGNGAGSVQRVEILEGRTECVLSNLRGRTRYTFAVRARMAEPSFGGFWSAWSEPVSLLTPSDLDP
The description is as above.

In experiment [16] the target is T14, rHuman EGF R/Fc Chimera, CF (R&D Systems Cat#344-ER) (human, UniProt P00533 25-645).
T14 construct: Bought reagent; also called epidermal growth factor receptor; Fc part of the bought chimera not given
Described as above.

Experiment [17] addresses T15, rHuman HGF R/c-MET/Fc Chimera, CF (R&D Systems Cat#358-MT/CF) (human, UniProt P08581 25-932).
T15 construct: Bought reagent; also called HGF R/Fc; hepatocyte growth factor receptor; Fc part of the bought chimera not given
Described as above.

Experiment [18] has as its target T16, rHuman Notch-1/Fc Chimera, CF (R&D Systems Cat#3647-TK) (human, UniProt P46531 19-526).
T16 construct: Bought reagent; Fc part of the bought chimera not given
Described as above.

The target in experiment [19] is T17, Recombinant Human DLL4 (R&D Systems Cat#1506-D4/CF) (human, UniProt Q9NR61 27-529).
T17 construct: Bought recombinant protein; also called rHuman DLL4; delta-like protein 4
The experiment is described as above.

These results are taken from patent US20120316071A1 (published 2012).

T15 sequence (P08581 25-932, change not shown): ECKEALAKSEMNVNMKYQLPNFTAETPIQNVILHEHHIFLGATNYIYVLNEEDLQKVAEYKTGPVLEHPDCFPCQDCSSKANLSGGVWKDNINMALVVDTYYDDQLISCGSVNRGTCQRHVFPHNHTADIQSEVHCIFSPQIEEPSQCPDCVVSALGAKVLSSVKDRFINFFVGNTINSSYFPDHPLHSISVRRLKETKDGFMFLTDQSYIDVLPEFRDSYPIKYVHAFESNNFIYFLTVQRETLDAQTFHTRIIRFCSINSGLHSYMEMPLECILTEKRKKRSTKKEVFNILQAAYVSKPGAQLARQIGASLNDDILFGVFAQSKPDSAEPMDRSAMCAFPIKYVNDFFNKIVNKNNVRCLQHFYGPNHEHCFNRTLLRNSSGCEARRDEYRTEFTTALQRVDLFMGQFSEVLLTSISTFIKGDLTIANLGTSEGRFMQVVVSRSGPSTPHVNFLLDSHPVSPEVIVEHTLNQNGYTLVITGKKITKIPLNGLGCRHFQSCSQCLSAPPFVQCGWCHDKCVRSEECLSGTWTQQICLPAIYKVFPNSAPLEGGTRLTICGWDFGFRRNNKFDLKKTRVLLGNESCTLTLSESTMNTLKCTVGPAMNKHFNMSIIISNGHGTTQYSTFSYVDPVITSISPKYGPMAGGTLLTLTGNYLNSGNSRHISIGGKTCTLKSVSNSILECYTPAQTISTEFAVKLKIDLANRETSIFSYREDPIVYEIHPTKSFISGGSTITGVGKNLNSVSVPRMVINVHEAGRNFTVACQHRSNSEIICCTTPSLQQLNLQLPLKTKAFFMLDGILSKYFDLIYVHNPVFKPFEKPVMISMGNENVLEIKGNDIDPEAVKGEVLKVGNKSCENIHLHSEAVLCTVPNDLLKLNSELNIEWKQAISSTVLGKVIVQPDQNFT

B1: Fab VH1-46_IGHD6-13*01_IGHJ4*01 & B3_IGKJ1*01 (Fab, V domains shown)
VH: QVQLVQSGAEVKKPGASVKVSCKASGYTFTSYYMHWVRQAPGQGLEWMGIINPSGGSTSYAQKFQGRVTMTRDTSTSTVYMELSSLRSEDTAVYYCAREGYSSSWYDYFDYWGQGTLVTVSS
VL: not shown
notes: Germline Fab made in E. coli; VH was cloned into Plasmid A (CH1, His6 and Flag tags) and the kappa VL into Plasmid C (kappa CL)
For the molecule B1, the ECL signal in [1] was 407; in [2], 486; in experiment [3], 6760; in [4] it was 353.

B2: Fab VH6-1_IGHD3-3*01_IGHJ4*01 & V4-3_IGLJ4*01 (Fab, V domains shown)
VH: QVQLQQSGPGLVKPSQTLSLTCAISGDSVSSNSAAWNWIRQSPSRGLEWLGRTYYRSKWYNDYAVSVKSRITINPDTSKNQFSLQLNSVTPEDTAVYYCAREYYDFWSGYYTDYFDYWGQGTLVTVSS
VL: QPVLTQPTSLSASPGASARLTCTLRSGINLGSYRIFWYQQKPESPPRYLLSYYSDSSKHQGSGVPSRFSGSKDASSNAGILVISGLQSEDEADYYCMIWHSSASFVFGGGTQLIIL
notes: Tested as a purified germline Fab made in E. coli; The VH was cloned into plasmid A (CH1 constant region, His6 and Flag tags) and the lambda VL into plasmid E (lambda CL)
Turning to B2, the ECL signal stood at 1270 in experiment [5]; 470 in experiment [6]; 368 in [7]; 383 in experiment [8]; 478 in [9]; 938 in experiment [10]. In addition, the ECL signal in experiment [11] came to 431.

B3: Fab VH1-8_IGHD2-2*01_IGHJ6*01 & L12_IGKJ1*01 (Fab, V domains shown)
VH: QVQLVQSGAEVKKPGASVKVSCKASGYTFTSYDINWVRQATGQGLEWMGWMNPNSGNTGYAQKFQGRVTMTRNTSISTAYMELSSLRSEDTAVYYCARGGYCSSTSCYADYYYYYGMDVWGQGTTVTVSS
VL: not shown
With B3, the ECL signal turned out to be 1970 in experiment [12]; 1750 in [13]; 1530 in experiment [14]; 2150 in experiment [15]; 1750 in [16]; 1880 in [17]. In addition, the figures for the ECL signal in experiment [18] and in [19] were 1760 and 7740, respectively.
